T1: COPB2_(1–304), N-terminal WD repeat of COPB2 (S. cerevisiae, UniProt P41811 1-304)
T1 chain: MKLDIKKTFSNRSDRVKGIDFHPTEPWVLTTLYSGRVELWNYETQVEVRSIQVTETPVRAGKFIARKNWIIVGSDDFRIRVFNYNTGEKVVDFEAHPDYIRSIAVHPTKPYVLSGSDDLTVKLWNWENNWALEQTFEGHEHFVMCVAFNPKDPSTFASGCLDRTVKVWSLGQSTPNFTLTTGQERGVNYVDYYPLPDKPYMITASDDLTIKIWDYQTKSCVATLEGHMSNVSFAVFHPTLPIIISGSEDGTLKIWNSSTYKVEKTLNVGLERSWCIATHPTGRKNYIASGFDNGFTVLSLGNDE

T2: COPB2_(1–304), N-terminal WD repeat of COPB2 (S. cerevisiae, UniProt P41811 1-304)
T2 construct: COPB2 (coatomer beta'), residues 1-304, N-terminal WD repeat domain; residues are counted in 'Saccharomyces cerevisiae COPB2 numbering'; PDB 2YNN (COPB2 1-304) served as search model; codon-optimised synthetic gene; also called WD-repeat domain of COPB2; source: E. coli BL21(DE3), purified (Ni-NTA, tag cleavage, ion exchange, SEC); not shown: 6xHis-Sumo3, N-terminal, cleaved
T2 sequence (looked up): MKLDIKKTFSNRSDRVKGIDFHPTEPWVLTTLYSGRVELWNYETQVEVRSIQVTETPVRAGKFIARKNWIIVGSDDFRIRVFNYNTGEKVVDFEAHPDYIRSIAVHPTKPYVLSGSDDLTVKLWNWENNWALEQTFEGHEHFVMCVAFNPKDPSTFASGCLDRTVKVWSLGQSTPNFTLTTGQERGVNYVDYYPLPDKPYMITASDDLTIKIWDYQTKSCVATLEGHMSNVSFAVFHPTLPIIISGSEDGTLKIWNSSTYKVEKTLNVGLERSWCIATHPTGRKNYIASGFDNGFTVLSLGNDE


How the values were obtained:
[1] = molecular target: T1, COPB2_(1–304), N-terminal WD repeat of …; assay: ITC
[2] = molecular target: T2, COPB2_(1–304), N-terminal WD repeat of …; assay: ITC; 450 μM of each peptide titrated into 20 μM COPB2 1-304; 25°C; 150 mM NaCl, 0.5 mM TCEP, 25 mM Hepes pH 7.5; one-site model; details: both partners purified

Row | Kd [1] [µM] | Kd [2] [µM] | Binder
1 | 6 |  | PVRASRNKRPTFLKIKAP [EBP peptide K256A]
2 |  | 11.6 | PVRASRNKRPTFLKIKKP (also called 18–amino acid EBP polypeptide) [exosome-binding peptide (EBP), 18-amino acid polypeptide of Wnt7a (240-257)]
3 |  | 37.2 | LKIKKP (also called C-terminal half of the polypeptide) [Wnt_(252–257) peptide (LKIKKP)]
4 | 47.2 |  | PVRASRNKRPTFLAIKKP [EBP peptide K253A]
